Drawing on publication PMC6346709, this text covers binding relative to group II CbpF, response and stoichiometry N for 23 molecules.

Experiment [1] deals with Recombinant CbpF from Fn ATCC 25586 (group I), passenger domain (Fusobacterium nucleatum ATCC 25586) (UniProt Q8RIS0). The experiment can be described thus: ELISA; purified CbpFI and CbpFII (3 pmol) immobilised on plates; 1 pmol of each CEACAM-Fc variant; anti-human secondary antibody. For orientation: ELISA stands for enzyme-linked immunosorbent assay.
Experiment [2] addresses Recombinant CbpF from Fn ATCC 25586 (group I), passenger domain (UniProt Q8RIS0). The experiment in a line: ELISA. The following applies: 3 pmol CbpF; 15 fmol CEACAM1-3-Fc mutant; developed for 5 hrs at 37°C; parent: est. 0.43; read off a plot.
Experiment [3] concerns the target Recombinant CbpF from clinical strain 2B3 (group II), passenger domain, pOPINE construct. The experiment can be described thus: ELISA. The following applies: 3 pmol CbpF; 15 fmol CEACAM1-3-Fc mutant; developed for 5 hrs at 37°C; parent: est. 0.66; read off a plot.
For experiment [4], the target named is CEACAM binding protein of Fusobacterium (CbpF) of F. nucleatum ATCC 25586, FN1499 (Fusobacterium nucleatum ATCC 25586 (endogenous)). The experiment can be described thus: migration on SDS-PAGE and Western blot; native CbpF in lysate or co-precipitate runs at ~150 kDa against ~50 kDa predicted for the mature chain; Fn lysate gives a ~50 kDa band after 70% formic acid.

The target in experiment [5] is CEACAM binding protein of Fusobacterium (CbpF) of F. vincentii ATCC 49256, FNV1729 (Fusobacterium vincentii ATCC 49256 (endogenous)). The description is as above.
The target of experiment [6] is T1, Recombinant CbpF from Fn ATCC 25586 (group I), passenger domain, Q8RIS0.
T1 chain: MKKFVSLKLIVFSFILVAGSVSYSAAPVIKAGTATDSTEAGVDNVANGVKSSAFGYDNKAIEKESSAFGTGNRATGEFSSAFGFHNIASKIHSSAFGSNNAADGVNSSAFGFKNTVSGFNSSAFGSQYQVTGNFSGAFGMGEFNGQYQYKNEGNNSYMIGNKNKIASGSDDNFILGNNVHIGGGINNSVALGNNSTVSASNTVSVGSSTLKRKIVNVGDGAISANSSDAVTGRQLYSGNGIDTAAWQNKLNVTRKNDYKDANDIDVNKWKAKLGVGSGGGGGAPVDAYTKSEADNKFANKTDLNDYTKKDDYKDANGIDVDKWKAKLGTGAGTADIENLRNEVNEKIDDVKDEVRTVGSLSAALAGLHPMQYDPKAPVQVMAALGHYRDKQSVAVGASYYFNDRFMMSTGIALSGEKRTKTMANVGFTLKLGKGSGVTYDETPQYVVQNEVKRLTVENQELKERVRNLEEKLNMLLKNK
The experiment in a line: ELISA. The following applies: chain shown with the change; 3 pmol CbpF; 15 fmol CEACAM1-3-Fc mutant; developed for 5 hrs at 37°C; parent: est. 0.43; read off a plot.

Experiment [7] deals with Recombinant CbpF from clinical isolate 2B3 (protein of Figure 8, dot blot and Figure S9). The experiment can be described thus: ELISA. The following applies: chain shown with the change; read at 2 µg.ml-1 of the Fc construct (highest point of the titration); recombinant CbpF immobilised; parent: est. 1.9; read off a plot.

Numbering of substitutions follows the chain as printed. Numbers in names are those of the source.

For “CEA-Fc (from UniProt P06731 35-685) (Fc fusion)”, the binding relative to group II CbpF in experiment [1] came to 50%. “CEACAM1-3-Fc (containing N-A1-B1 domains) F29G”: the response in experiment [2] and in experiment [3] was 0.012 A405 each time. For “CEACAM1-3-Fc (containing N-A1-B1 domains) F29I”, the figures for the response in experiment [2] and in experiment [3] were 0.012 A405 and 0.017 A405, respectively. Taken in the same sequence, the figures for “CEACAM1-3-Fc (containing N-A1-B1 domains) F29R” were 0.013 A405 and 0.013 A405. For “CEACAM1-3-Fc (containing N-A1-B1 domains) F29Y”, in that order: 0.017 A405 and 0.082 A405. Taken in the same sequence, the figures for “CEACAM1-3-Fc (containing N-A1-B1 domains) G47L” were 0.007 A405 and 0.008 A405. “CEACAM1-3-Fc (containing N-A1-B1 domains) I91A”: the values for the response in experiment [2] and in experiment [3] were 0.02 A405 and 0.01 A405, respectively. On to “CEACAM1-3-Fc (containing N-A1-B1 domains) I91G”, for which the response was 0.066 A405 in experiment [2] and 0.017 A405 in experiment [3]. Taken in the same sequence, the figures for “CEACAM1-3-Fc (containing N-A1-B1 domains) I91L” were 0.022 A405 and 0.006 A405. Taken in the same sequence, the figures for “CEACAM1-3-Fc (containing N-A1-B1 domains) Q44E” were 0.02 A405 and 0.017 A405. Taken in the same sequence, the figures for “CEACAM1-3-Fc (containing N-A1-B1 domains) Q44L” were 0.027 A405 and 0.021 A405. Consider “CEACAM1-3-Fc (containing N-A1-B1 domains) Q44R”, for which the response in experiment [2] turned out to be 0.02 A405; in experiment [3] it was 0.013 A405.

With “CEACAM1-3-Fc (containing N-A1-B1 domains) Q89N”, the response in experiment [3] was determined as 0.17 A405.

For the molecule “CEACAM1-3-Fc (containing N-A1-B1 domains) V96A”, in experiment [3], the response stood at 0.87 A405. For the molecule “CEACAM1-3-Fc (containing N-A1-B1 domains) Y34A”, the results for the response in experiment [2] and in experiment [3] were 0.021 A405 and 0.043 A405, respectively. For “CEACAM1-3-Fc (containing N-A1-B1 domains) Y34F”, in that order: 0.017 A405 and 0.013 A405. As for “CEACAM1-3-Fc (containing N-A1-B1 domains) Y34S”, the values for the response in experiment [2] and in experiment [3] were 0.017 A405 and 0.012 A405, respectively. “CEACAM1-Fc, comprising all extracellular CEACAM1 domains fused to the human immunoglobulin G (IgG) Fc domain (from UniProt P13688 35-428) (Fc fusion)”: the binding relative to group II CbpF in experiment [1] amounted to 75%.

Regarding “CEACAM binding protein of Fusobacterium (CbpF) of F. nucleatum ATCC 25586, FN1499 (natural protein)”, in experiment [4], the stoichiometry N was 3. In the case of “CEACAM binding protein of Fusobacterium (CbpF) of F. vincentii ATCC 49256, FNV1729 (natural protein)”, the stoichiometry N in experiment [5] was 3.

B1: CEACAM1-3-Fc (containing N-A1-B1 domains) V96A (protein)
chain: QLTTESMPFNVAEGKEVLLLVHNLPQQLFGYSWYKGERVDGNRQIVGYAIGTQQATPGPANSGRETIYPNASLLIQNVTQNDTGFYTLQVIKSDLANEEATGQFHVYPELPKPSISSNNSNPVEDKDAVAFTCEPETQDTTYLWWINNQSLPVSPRLQLSNGNRTLTLLSVTRNDTGPYECEIQNPVSANRSDPVTLNVTYGPDTPTISPSDTYYRPGANLSLSCYAASNPPAQYSWLINGTFQQSTQELFIPNITVNNSGSYTCHANNSVTGCNRTTVKTIIVTGK
B1: the response in experiment [6] was 0.4 A405.

B2: CEACAM1-3-Fc (containing N-A1-B1 domains) Q89N (protein)
chain: B1 chain with Q89N, A96V
B2: the response in experiment [6] worked out at 0.024 A405.

B3: CEACAM1-Fc, comprising all extracellular CEACAM1 domains fused to the human immunoglobulin G (IgG) Fc domain, P13688 I91A (protein)
chain: QLTTESMPFNVAEGKEVLLLVHNLPQQLFGYSWYKGERVDGNRQIVGYAIGTQQATPGPANSGRETIYPNASLLIQNVTQNDTGFYTLQVAKSDLVNEEATGQFHVYPELPKPSISSNNSNPVEDKDAVAFTCEPETQDTTYLWWINNQSLPVSPRLQLSNGNRTLTLLSVTRNDTGPYECEIQNPVSANRSDPVTLNVTYGPDTPTISPSDTYYRPGANLSLSCYAASNPPAQYSWLINGTFQQSTQELFIPNITVNNSGSYTCHANNSVTGCNRTTVKTIIVTELSPVVAKPQIKASKTTVTGDKDSVNLTCSTNDTGISIRWFFKNQSLPSSERMKLSQGNTTLSINPVKREDAGTYWCEVFNPISKNQSDPIMLNVNYNALPQENGLSPG
Consider B3, for which, in experiment [7], the response amounted to 0 A405.

Broadly, the stoichiometry N is a count of units in the complex or per binding partner.
